Measured values published in US20170305994A1 (Novo Nordisk, published 2017).
Changes are numbered by the printed parent chain. In names and notes the source's numbering stands.

What was measured:
[1] = molecular target: T1, cynomolgus DR3 (on HEK293 reporter cells) (cynomolgus, UniProt A0A2K5WJ09 98-464); experiment: cell-based or functional assay
T1 sequence: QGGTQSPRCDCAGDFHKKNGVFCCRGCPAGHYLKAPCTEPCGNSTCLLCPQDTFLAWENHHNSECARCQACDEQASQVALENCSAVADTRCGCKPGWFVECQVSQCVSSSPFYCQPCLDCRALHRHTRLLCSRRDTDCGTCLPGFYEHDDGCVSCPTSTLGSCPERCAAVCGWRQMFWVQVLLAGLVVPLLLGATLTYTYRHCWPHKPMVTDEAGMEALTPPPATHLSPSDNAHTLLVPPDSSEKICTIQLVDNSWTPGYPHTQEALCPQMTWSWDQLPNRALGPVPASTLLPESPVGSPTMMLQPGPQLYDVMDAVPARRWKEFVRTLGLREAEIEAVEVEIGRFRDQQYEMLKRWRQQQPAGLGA

[2] = molecular target: T2, human DR3 (full length, on cells) (human, UniProt Q93038 25-417); experiment: cell-based or functional assay
T2 sequence: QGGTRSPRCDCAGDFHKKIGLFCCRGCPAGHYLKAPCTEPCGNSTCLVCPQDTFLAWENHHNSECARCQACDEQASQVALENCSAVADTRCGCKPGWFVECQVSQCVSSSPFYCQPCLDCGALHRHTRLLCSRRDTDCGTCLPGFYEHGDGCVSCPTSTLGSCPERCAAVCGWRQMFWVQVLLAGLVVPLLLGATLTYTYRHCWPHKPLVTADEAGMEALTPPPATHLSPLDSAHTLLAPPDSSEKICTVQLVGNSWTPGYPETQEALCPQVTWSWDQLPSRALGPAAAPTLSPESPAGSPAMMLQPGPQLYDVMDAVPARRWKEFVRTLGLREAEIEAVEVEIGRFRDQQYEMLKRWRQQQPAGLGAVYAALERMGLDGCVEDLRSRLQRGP

human DR3 R29Q = molecular target: T3, human DR3 R29Q (human, UniProt Q93038 25-417); experiment: cell-based or functional assay
T3 sequence: T2 sequence with R5Q

human DR3 L45V = molecular target: T4, human DR3 L45V (human, UniProt Q93038 25-417); experiment: cell-based or functional assay
T4 sequence: T2 sequence with L21V

[3] = molecular target: T5, human DR3 with the death domain deleted (ΔM339-P417 of SEQ ID NO:1), expressed on CHOK1SV cells (human, UniProt Q93038 25-338); experiment: FACS on DR3 expressing cells; competitor Mab 0107
T5 construct: also called truncated DR3; hDR3 expressing CHO cells
T5 sequence: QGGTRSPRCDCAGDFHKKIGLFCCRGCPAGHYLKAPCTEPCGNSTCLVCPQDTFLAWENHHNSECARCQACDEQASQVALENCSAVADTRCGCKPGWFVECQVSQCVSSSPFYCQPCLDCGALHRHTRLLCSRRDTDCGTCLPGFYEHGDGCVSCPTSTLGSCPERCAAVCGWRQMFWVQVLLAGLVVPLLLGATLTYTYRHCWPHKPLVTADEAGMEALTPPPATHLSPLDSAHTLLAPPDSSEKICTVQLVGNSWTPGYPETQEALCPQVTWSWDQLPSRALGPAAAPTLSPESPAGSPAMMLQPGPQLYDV

[4] = molecular target: T5, human DR3 with the death domain deleted …; experiment: flow cytometry competition: Fab vs TL1A on hDR3-expressing CHO cells
DR3 (CRD1)-Fc = molecular target: T6, DR3 (CRD1)-Fc (human); experiment: SPR Biacore T200, DR3(CRD1)-Fc captured by anti-human IgG, Fab as analyte, 25 C, 1:1 model, mean of 3 surface densities
T6 construct: Amino acids 25-71 of DR3 fused to the Fc domain of human IgG4; purified to exclude oligomers (mainly dimeric)
Protocol: The experiments were performed on a Biacore T200 instrument (GE Healthcare) and analysed with the Biacore T200 Evaluation Software. Anti human IgG antibodies (human IgG capture kit from GE Healthcare) were immobilized on all flow cells of a CM5 sensor chip according to manufacturer's instructions. HBS-EP (GE Healthcare) with 0.1% human serum albumin was used as running buffer. DR3(CRD1)-Fc (SEQ ID NO:2) was captured on the chip at low surface densities between 14 and 45 RU. Fab fragments were diluted to concentrations between 90 and 0.037 nM and subsequently injected for 360 s. […] Binding curves were measured at 25° C. with a flow rate between 30 and 60 μL/min.
Regeneration was performed with 3 M […] for 2×20 s. The raw data were double referenced by subtraction of the signals from a reference flow cell without captured ligand and a buffer blank. Determination of the kinetic parameters was performed by fitting with a 1:1 binding model using the Biacore T200 Evaluation Software (GE Healthcare). Average values obtained from 3 different surface densities of DR3(CRD1)-Fc (SEQ ID NO:2) were calculated and are stated in table 14

T6 sequence (chain, as listed by the source limits assumed): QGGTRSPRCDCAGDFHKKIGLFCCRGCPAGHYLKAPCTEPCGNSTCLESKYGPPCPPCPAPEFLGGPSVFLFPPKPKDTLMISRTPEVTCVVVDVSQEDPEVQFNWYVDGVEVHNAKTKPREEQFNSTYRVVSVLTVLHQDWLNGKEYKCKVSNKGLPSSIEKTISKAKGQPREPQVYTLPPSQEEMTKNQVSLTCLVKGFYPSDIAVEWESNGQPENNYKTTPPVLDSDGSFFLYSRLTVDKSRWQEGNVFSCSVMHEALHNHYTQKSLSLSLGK

IC50 at 40 ng/ml TL1A, Lyda20 reporter cells [1]: 628 nM | IC50, TNFalpha inhibition, TL1A-activated CD4+ T cells, donor 1 [2]: 0.3 nM | IC50, TNFalpha inhibition, TL1A-activated CD4+ T cells, donor 2 [2]: 0.17 nM | IC50, TNFalpha inhibition, average (n 3) [2]: 0.189 nM | max % inhibition of TNFalpha, donor 1 [2]: 92.2% | max % inhibition of TNFalpha, donor 2 [2]: 82.3% | IC50 of Fab upon stimulation by TL1A, transient reporter (human DR3 R29Q): 0.372 nM | IC50 of Fab upon stimulation by TL1A, transient reporter (human DR3 L45V): 2 nM | Kd (DR3 (CRD1)-Fc): 0.00805 nM | koff (DR3 (CRD1)-Fc): 3.19e-05 s⁻¹ | kon (DR3 (CRD1)-Fc): 3.97e+06 M⁻¹ s⁻¹
B1: 0228 (humanized Fab of 27F44, IgG4, hz0072VH S49A / hz0072VL) (Fab, V domains shown)
VH: EVQLVESGGGLVQPGGSLRLSCAASGFTFSNYDMSWVRQATGKGLEWVAAFSSDGYTFYPGSVKGRFTISRENAKNSLYLQMNSLRAGDTAVYYCARHADYANYPVMDYWGQGTLVTVSS
VL: DIQMTQSPSSLSASVGDRVTITCRASKSVSTSGYSYMHWYQQKPGKAPKLLIYLASNLESGVPSRFSGSGSGTDFTLTISSLQPEDFATYYCQHSRELPLTFGGGTKVEIKR
notes: IgG4-Cys, hz (humanized IgG4 Fab with the hinge cysteine kept)
molar ratio Mab/Fab from which the Fab inhibits [3]: 1 Fab per Mab (molar ratio Mab/Fab 1:n) | IC50 [4]: 0.484 nM | max percentage inhibition [4]: 78%
